The text below walks through data of patent US20190022259A1, “Use of 99mTc-tilmanocept and related molecular constructs for identifying and diagnosing malignant tumors and for monitoring therapeutic anti-tumor interventions” (Navidea Biopharmaceuticals, Inc., priority 2017, published 2019).

Data set [1] relates to TAMs around liver metastases (CD206+ macrophages). Description: SPECT/CT imaging of colorectal cancer patients with synchronous liver metastasis after intravenous injection. It is filed as in vivo, human. To be noted: imaging 4-6 hours after injection.
For data set [2] the following is noted: human, in vivo.
Protocol: A safety follow-up was conducted between 2 to 8 days after the injection.
For data set [3] the following is noted: rat, in vivo, iv; cited from earlier work.

Entries after “also recorded” stand apart in the source; their conditions may differ.

With “(99m)Tc-diethylenetriaminepentaacetic acid (DTPA)-mannosyl-dextran [^99mTc tilmanocept]”, the “localization on SPECT/CT image” value is listed as “localization of ^99mTc tilmanocept in an area of larger metastasis than was observed with the FDG PET/CT; also recorded: suggests the presence of TAMs around the metastasis” in data set [1] (first subject, 50 μg/2mCi i.v.) and “Localization around the metastasis was noted” in data set [1] (second subject, 200 μg/2mCi i.v.). In addition, the adverse drug reactions entry in data set [2] is “No adverse drug reactions were observed”. Besides, the “tolerability of IV injection” value in data set [2] (iv) is “well-tolerated”. The excretion entry in data set [3] is given as “excreted into the urine”.
